{"source": "paper PMC3401278", "about": "(ACS Chemical Biology, 2012)", "key": {"[1]": {"target": "T1, E. coli His6-LpxD (Escherichia coli, UniProt P21645)", "experiment": "biochemical", "format": "binding"}, "[2]": {"target": "LpxA (Escherichia coli, UniProt P0A722)", "experiment": "Continuous fluorescent acyltransferase inhibition assay", "format": "biochemical, E. coli", "conditions": "pH 7.5"}, "[3]": {"target": "E. coli LpxA (Escherichia coli, UniProt P0A722)", "experiment": "Fluorescence polarization competition binding assay, LpxA"}, "[4]": {"target": "T1, E. coli His6-LpxD", "experiment": "Fluorescence polarization direct binding of FITC-labeled peptide to His6-LpxD", "conditions": "at up to 180 μM LpxD"}, "[5]": {"target": "T2, E. coli His6-LpxD (UDP-3-O-(R-3-hydroxyacyl)glucosamine N-acyltransferase) (E. coli, UniProt P21645 1-341)", "T2 sequence (looked up)": "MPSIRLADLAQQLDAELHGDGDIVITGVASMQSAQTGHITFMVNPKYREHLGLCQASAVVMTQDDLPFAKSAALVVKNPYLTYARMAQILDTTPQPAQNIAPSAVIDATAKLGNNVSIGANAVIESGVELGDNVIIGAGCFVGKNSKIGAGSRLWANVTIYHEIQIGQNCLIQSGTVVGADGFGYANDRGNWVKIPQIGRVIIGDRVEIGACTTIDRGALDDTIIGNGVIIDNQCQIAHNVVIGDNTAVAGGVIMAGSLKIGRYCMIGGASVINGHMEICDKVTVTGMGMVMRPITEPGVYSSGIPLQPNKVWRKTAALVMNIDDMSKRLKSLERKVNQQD", "experiment": "fluorescence polarisation"}, "[6]": {"target": "T3, E. coli LpxA (UDP-N-acetylglucosamine acyltransferase), native (E. coli, UniProt P0A722 1-262)", "T3 sequence (looked up)": "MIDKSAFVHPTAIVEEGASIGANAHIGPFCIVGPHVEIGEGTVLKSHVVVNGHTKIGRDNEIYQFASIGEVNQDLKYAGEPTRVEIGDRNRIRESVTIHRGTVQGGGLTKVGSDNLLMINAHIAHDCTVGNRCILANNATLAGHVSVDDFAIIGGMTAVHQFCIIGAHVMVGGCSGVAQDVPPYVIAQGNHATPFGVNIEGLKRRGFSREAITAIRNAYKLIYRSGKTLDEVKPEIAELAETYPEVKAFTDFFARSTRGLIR", "experiment": "fluorescence polarisation"}, "[7]": {"target": "T2, E. coli His6-LpxD …", "experiment": "fluorescence polarisation", "remark": "listed apart in the source"}}, "note": "Where two headings read alike, the source gives them in different places. Where no end group is shown, it is not given here. The star is where a group is joined. FITC = O=C1OC2(c3ccc(O)cc3Oc3cc(O)ccc32)c2ccc(NC(=S)*)cc21; βAla = NCCC(=O)O"}
{"molecule": "CC[C@H](C)[C@H](NC(=O)[C@@H]1CCCN1C(=O)[C@H](CC(=O)O)NC(=O)[C@H](CC(C)C)NC(=O)[C@H](CCSC)NC(=O)[C@H](Cc1c[nH]c2ccccc12)NC(=O)CNC(=O)[C@H](CO)NC(=O)[C@@H](N)CO)C(=O)N[C@@H](C)C(=O)NCC(=O)N[C@@H](CCCCN)C(=O)N[C@@H](Cc1c[nH]c2ccccc12)C(=O)N[C@@H](CO)C(=O)N[C@@H](CCCNC(=N)N)C(N)=O", "note": "[P920]", "values": [{"measurement": "Kd", "setting": "[1]", "result": "> 300", "unit": "µM"}]}
{"molecule": "SENNFMLPLLPL-NH2 [RJPXD34]", "values": [{"measurement": "LpxA IC50", "setting": "[2]", "result": "did not inhibit"}, {"measurement": "Kd", "setting": "[3]", "result": "> 300", "unit": "µM"}]}
{"molecule": "β-alanyl-fluorescein", "values": [{"measurement": "ΔmP with LpxD, fluorophore alone", "setting": "[4]", "result": "~ 26 mP"}]}
{"molecule": "TNLYMLPKWDIP-NH2", "note": "[RJPXD33 (TNLYMLPKWDIP-NH2)]", "values": [{"measurement": "Kd", "setting": "[5]", "result": "6.5 ± 0.2", "unit": "µM"}, {"measurement": "Kd", "setting": "[6]", "result": "22 ± 2.1", "unit": "µM"}]}
{"molecule": "{FITC-βAla}-TNLYMLPKWDIP-NH2 (SMILES CC[C@H](C)[C@H](NC(=O)[C@H](CC(=O)O)NC(=O)[C@H](Cc1c[nH]c2ccccc12)NC(=O)[C@H](CCCCN)NC(=O)[C@@H]1CCCN1C(=O)[C@H](CC(C)C)NC(=O)[C@H](CCSC)NC(=O)[C@H](Cc1ccc(O)cc1)NC(=O)[C@H](CC(C)C)NC(=O)[C@H](CC(N)=O)NC(=O)[C@@H](NC(=O)CCNC(=S)Nc1ccc2c(c1)C(=O)OC21c2ccc(O)cc2Oc2cc(O)ccc21)[C@@H](C)O)C(=O)N1CCC[C@H]1C(N)=O)", "note": "[FITC-RJPXD33 (FITC-(βA)TNLYMLPKWDIP-NH2)]", "values": [{"measurement": "Kd", "setting": "[7]", "result": "0.6 ± 0.04", "unit": "µM"}]}
{"molecule": "SENNFMLPLLPL-NH2", "note": "[RJPXD34 (SENNFMLPLLPL-NH2)]", "values": [{"measurement": "Kd", "setting": "[5]", "result": "31 ± 1.5", "unit": "µM"}]}
{"molecule": "QHFMVPDINDMQ-NH2", "note": "[RJPXD31 (QHFMVPDINDMQ-NH2)]", "values": [{"measurement": "Kd", "setting": "[5]", "result": "41 ± 3", "unit": "µM"}, {"measurement": "Kd", "setting": "[6]", "result": "119 ± 9", "unit": "µM"}]}
